Measured values from the RNAGym collection of RNA variant scans (doi:10.7554/elife.80360).

B1: HDV Ribozyme (parent)
chain: GGCCGGCAUGGUCCCAGCCUCCUCGCUGGCGCCGGCUGGGCAACAUUCCGAGGGGACCGUCCCCUCGGUAAUGGCGAAUGGGACCCA

Variants of: B1
Assay: self-cleavage, relative activity (ratio to wild type); higher = more cleavage; co-transcriptional

Variant	self-cleavage
GGCCGGCAUGGUCCCAUCCUCCUCGCUGGCGCCGGCUGGGCAACAUUCCGAGGGGACCCUCCCCUCGGUAAUGGCGAAUGGGACCCA [G17U G59C]	0.432
GGCAGGCAUGGUCCCAGCCUCCUCGCUGGCGCCAGCUGGGCAACAUUCCGAGGGGACCGUCCCCUCGGUAAUGGCGAAUGGGACCCA [C4A G34A]	0.284
GGCCGGCAUGGUCCCAGCCUCCUCGCUGGCGCCGGCUGGGCAACAUUCCGAGGGGACCUUCCCCUCGGUAAUGGCGUAUGGGACCCA [G59U A77U]	0.47
GGCCGGCAUCGUCCCAGCCUCCUCGCUGGCGCCGGCUGGGCAACAUUCCGAGGGGACCGUCCCCACGGUAAUGGCGAAUGGGACCCA [G10C U65A]	0.665
GGCCGGCAUGGUCCCAGCCUCCUCGCUGGCGCCGGCUGGGCAACAUUCGGAGGGGACCGUCCCCUCGGUAAUGGCGAAGGGGACCCA [C49G U79G]	0.762
GGCCGGCAUGGUCCCAGCCUCCUCGCUGGCGCCGGCUGGUCAACAUUCCGAGGGGACCCUCCCCUCGGUAAUGGCGAAUGGGACCCA [G40U G59C]	0.76
GGCCGGCAUGGUCCCAGCCUCCUCGCUGGCGCCGGCUGGGCAACAUUCCGAGGGGACCGUCCCCUCGGUAACGGCGAAUGGGGCCCA [U72C A83G]	0.318
GGCCGGCAUGGUCCCAGCCUCUUCGCUGGCGCCGGCAGGGCAACAUUCCGAGGGGACCGUCCCCUCGGUAAUGGCGAAUGGGACCCA [C22U U37A]	0.166
GGCCGGCAGGGUCCCAGCCUCCUCGCUGGCGCCGGCUGGGCAACAUUCCGAGGGGACGGUCCCCUCGGUAAUGGCGAAUGGGACCCA [U9G C58G]	1.02
GGCCGGCAUGGUCCCAGCCUCCUCGCUGGCGCCGGCUGGGCAACAUUCCAAGGGGACCGUCCCCGCGGUAAUGGCGAAUGGGACCCA [G50A U65G]	0.95
GGCCGGCAUAGUCCCAGCCUCCUCGCUGGCGCCGGCUGGGCAACAUUCCGAGUGGACCGUCCCCUCGGUAAUGGCGAAUGGGACCCA [G10A G53U]	0.857
GGCCGGCAUGGUCCCAGCCUCCUCGCUGGCGCCGGCUGGGCAACAUUCCGAGGGGACCGUCCCCCCAGUAAUGGCGAAUGGGACCCA [U65C G67A]	0.706
GGCCGGCAUGGUCCCCGCCUCCUUGCUGGCGCCGGCUGGGCAACAUUCCGAGGGGACCGUCCCCUCGGUAAUGGCGAAUGGGACCCA [A16C C24U]	0.287
GGCCGGCAUGGUCCCAGCCUCGUCGCUGGCGCCGGCUGGGCAACAUUCCGAGGGGACCGUCCCCUCGGUAAUGGCGAAUGGGACCCC [C22G A87C]	0.0866
GGCCGGCAUGGUCCCAGCCUCCUCGCAGGCGCCGGCUGGGCUACAUUCCGAGGGGACCGUCCCCUCGGUAAUGGCGAAUGGGACCCA [U27A A42U]	0
GGCCGGCAUGGACCCAGCCUCCUCGCUGGCGCCGGCUGGGCAACAUUCCGAGGGGACCGUCCCCUCGGUAAUAGCGAAUGGGACCCA [U12A G73A]	0.123

Variant	self-cleavage
GACCGGCAUGGUCCCAGCCUCCUCGCUGGCGCCGGCUGGGCAACAUUCCGAGGGGACCGUCCCCUCGGUAAUGGCGAAUUGGACCCA [G2A G80U]	0.0227
GGCCGGCAUGGUCCCAGCCUCCUCGCUGGCGCCGGCUGGGCAACAUUGCGAGGUGACCGUCCCCUCGGUAAUGGCGAAUGGGACCCA [C48G G54U]	0.726
GGCCGGCAUGGUCCCAGCCUCCUCGCUGGCGCCGGCUGGGCUACAUUCCGAGGGGACCGUCCCCUCGGUAAUGGCGAGUGGGACCCA [A42U A78G]	0.264
GGCCGGCAUGGUCCCAGCCUCCUCGCUGGCGCCGGCUGGGCAACAUUCCGGGGGGACCGUCCUCUCGGUAAUGGCGAAUGGGACCCA [A51G C63U]	0.969
GGCCGGCAUGGUCCCAGCCUCCUCGCUGGCGCCGGCUAGGCAACAUUCCGAGGGAACCGUCCCCUCGGUAAUGGCGAAUGGGACCCA [G38A G55A]	0.0821
GGCCGGCAUGGUCCCAGCCUCCUCGCUGGAGCCGGCUGGGCAACAUUCCGAGGGGACCGUCCCCUCGGUAAUGGCGAAUGGGACCGA [C30A C86G]	0.475
GGCCGGCAUGGUCCCAGCCUCCUCGCUGGCGCCGGCUGGGCAACAUUCCGAGGGGACCGUCCCCUCGGUAAUGGCGAAUAUGACCCA [G80A G81U]	0.0936
GGCCGGCAUGGUCCCAGCCUCCUCGCUGGCGCCGGCUGGGCAACAUUCCGAGGGGACCGUCCCCUCCGUACUGGCGAAUGGGACCCA [G67C A71C]	0.657
GGCCGGCAUGGUCCCAGCCUCCUCGCUGGCGCCGGCUGGGCAACAUUCCGAGUGGACCGUCCCCUCGGUAAUGGCGAAUGGUACCCA [G53U G82U]	0.427
GGCCGGCAUGGUCUCAGCCUCCUCGCUGGCGCCGGCUGGGCAACAUUCCGAGGGGACCGUCCCCUCGGUACUGGCGAAUGGGACCCA [C14U A71C]	0.831
GGCCGGCAUGGUCCCAGCCCCCUCGCUGGCGCCGGCUGGGCAACAUUCCGAGGGGACCGUCCCCUCGGUAAUGGCGAAGGGGACCCA [U20C U79G]	0.185
GGCCGGCAUGGGCCCAGCCUCCUCGCUGGCGCCGGCUGGGCAACAUUCCGAGGGGACCGUCCCCUCGGUAAUGGCGAAUGGGACCAA [U12G C86A]	0.906
GGCCGGCAUGGUCCCAGCCUCCUCGCUGGCGCCGGCUGGGCAACAUUCCGAGGGGAUCGUCCCCUUGGUAAUGGCGAAUGGGACCCA [C57U C66U]	0.87
GGCCGGCAUGGUCCCAGCCUCAUCGCUGGCGCCGGCUGGGCAACAUUCCGAGGGGACCGUCCCCUCGGUAAUGGCGAAUGGGACCAA [C22A C86A]	0.448
GGCCGGCAUGGUCCCAGCCUCCUCGCUGGCGCCGGCUGGGCAACAUUCCGAGGGGACCGUCCCCUCGUUUAUGGCGAAUGGGACCCA [G68U A70U]	0.849
GGCCAGCAUGGUCCCAGCCUCCUCGCUGGCGCCGGCUGGGCAACAUUUCGAGGGGACCGUCCCCUCGGUAAUGGCGAAUGGGACCCA [G5A C48U]	0.0405
